The text below walks through data of the RNAGym collection of RNA variant scans (doi:10.1021/acssynbio.7b00057).

B1: Pistol ribozyme (parent)
chain: GGGUCGUUGUUCCAUAAUCGCGUGGAUAUGGCACGCAAGUUUCUACCGGGCACCGUAAAUGUCCGACUGGAGCCGUUCGGGCGGCUAUAAACAGACCUCAGGCCCGAAGCGUGGCGGCACCUGCCGCCGGUGGUAAAAAAGAUCGGAAGAGCACACGUCU

In this series the parent is B1. As to the kind of experiment: aptazyme ON/OFF ratio, guanine; higher = stronger switching; co-transcriptional cleavage with and without guanine.
Regarding GGGUCGCAGUCCAAUAAUCGCGUGGAUAUGGCACGCAAGUUUCUACCGGGCACCGUAAAUGUCCGACUGGAGCCGUUCGGGCGGCUAUAAACAGACCUCAGGCCCGAAGCGUGGCGGCACCUGCCGCCGGUGGUAAAAAAGAUCGGAAGAGCACACGUCU, the “aptazyme ON/OFF ratio” value is 1.1.

Consider GGGUCGCAGUCCGAUAAUCGCGUGGAUAUGGCACGCAAGUUUCUACCGGGCACCGUAAAUGUCCGACUGGAGCCGUUCGGGCGGCUAUAAACAGACCUCAGGCCCGAAGCGUGGCGGCACCUGCCGCCGGUGGUAAAAAAGAUCGGAAGAGCACACGUCU, for which the “aptazyme ON/OFF ratio” value came out at 1.06.

For the variant GGGUCGCAGUCCUAUAAUCGCGUGGAUAUGGCACGCAAGUUUCUACCGGGCACCGUAAAUGUCCGACUGGAGCCGUUCGGGCGGCUAUAAACAGACCUCAGGCCCGAAGCGUGGCGGCACCUGCCGCCGGUGGUAAAAAAGAUCGGAAGAGCACACGUCU, the “aptazyme ON/OFF ratio” value was determined as 1.04.

Regarding GGGUCGCAGUACAAUAAUCGCGUGGAUAUGGCACGCAAGUUUCUACCGGGCACCGUAAAUGUCCGACUGGAGCCGUUCGGGCGGCUAUAAACAGACCUCAGGCCCGAAGCGUGGCGGCACCUGCCGCCGGUGGUAAAAAAGAUCGGAAGAGCACACGUCU, the “aptazyme ON/OFF ratio” value was 1.15.

As to GGGUCGCAGUACGAUAAUCGCGUGGAUAUGGCACGCAAGUUUCUACCGGGCACCGUAAAUGUCCGACUGGAGCCGUUCGGGCGGCUAUAAACAGACCUCAGGCCCGAAGCGUGGCGGCACCUGCCGCCGGUGGUAAAAAAGAUCGGAAGAGCACACGUCU, the “aptazyme ON/OFF ratio” value turned out to be 1.08.

For the variant GGGUCGCAGUACUAUAAUCGCGUGGAUAUGGCACGCAAGUUUCUACCGGGCACCGUAAAUGUCCGACUGGAGCCGUUCGGGCGGCUAUAAACAGACCUCAGGCCCGAAGCGUGGCGGCACCUGCCGCCGGUGGUAAAAAAGAUCGGAAGAGCACACGUCU, the “aptazyme ON/OFF ratio” value was 1.12.

As for GGGUCGCAGUAUAAUAAUCGCGUGGAUAUGGCACGCAAGUUUCUACCGGGCACCGUAAAUGUCCGACUGGAGCCGUUCGGGCGGCUAUAAACAGACCUCAGGCCCGAAGCGUGGCGGCACCUGCCGCCGGUGGUAAAAAAGAUCGGAAGAGCACACGUCU, the “aptazyme ON/OFF ratio” value was determined as 1.16.

Take GGGUCGCAGUAUGAUAAUCGCGUGGAUAUGGCACGCAAGUUUCUACCGGGCACCGUAAAUGUCCGACUGGAGCCGUUCGGGCGGCUAUAAACAGACCUCAGGCCCGAAGCGUGGCGGCACCUGCCGCCGGUGGUAAAAAAGAUCGGAAGAGCACACGUCU: the “aptazyme ON/OFF ratio” value was 1.15.

For the variant GGGUCGCAGUAUUAUAAUCGCGUGGAUAUGGCACGCAAGUUUCUACCGGGCACCGUAAAUGUCCGACUGGAGCCGUUCGGGCGGCUAUAAACAGACCUCAGGCCCGAAGCGUGGCGGCACCUGCCGCCGGUGGUAAAAAAGAUCGGAAGAGCACACGUCU, the “aptazyme ON/OFF ratio” value is 1.24.

Regarding GGGUCGCAGUCUUAUAAUCGCGUGGAUAUGGCACGCAAGUUUCUACCGGGCACCGUAAAUGUCCGACUGGAGCCGUUCGGGCGGCUAUAAACAGACCUCAGGCCCGAAGCGUGGCGGCACCUGCCGCCGGUGGUAAAAAAGAUCGGAAGAGCACACGUCU, the “aptazyme ON/OFF ratio” value stood at 1.19.

Regarding GGGUCGCAGUCUAAUAAUCGCGUGGAUAUGGCACGCAAGUUUCUACCGGGCACCGUAAAUGUCCGACUGGAGCCGUUCGGGCGGCUAUAAACAGACCUCAGGCCCGAAGCGUGGCGGCACCUGCCGCCGGUGGUAAAAAAGAUCGGAAGAGCACACGUCU, the “aptazyme ON/OFF ratio” value was 1.31.

For the variant GGGUCGCAGUCUGAUAAUCGCGUGGAUAUGGCACGCAAGUUUCUACCGGGCACCGUAAAUGUCCGACUGGAGCCGUUCGGGCGGCUAUAAACAGACCUCAGGCCCGAAGCGUGGCGGCACCUGCCGCCGGUGGUAAAAAAGAUCGGAAGAGCACACGUCU, the “aptazyme ON/OFF ratio” value stood at 1.27.

Consider GGGUCGCAGUCGCAUAAUCGCGUGGAUAUGGCACGCAAGUUUCUACCGGGCACCGUAAAUGUCCGACUGGAGCCGUUCGGGCGGCUAUAAACAGACCUCAGGCCCGAAGCGUGGCGGCACCUGCCGCCGGUGGUAAAAAAGAUCGGAAGAGCACACGUCU, for which the “aptazyme ON/OFF ratio” value is 1.36.

Consider GGGUCGCAGUCUCAUAAUCGCGUGGAUAUGGCACGCAAGUUUCUACCGGGCACCGUAAAUGUCCGACUGGAGCCGUUCGGGCGGCUAUAAACAGACCUCAGGCCCGAAGCGUGGCGGCACCUGCCGCCGGUGGUAAAAAAGAUCGGAAGAGCACACGUCU, for which the “aptazyme ON/OFF ratio” value stood at 1.44.

For the variant GGGUCGCAGUCACAUAAUCGCGUGGAUAUGGCACGCAAGUUUCUACCGGGCACCGUAAAUGUCCGACUGGAGCCGUUCGGGCGGCUAUAAACAGACCUCAGGCCCGAAGCGUGGCGGCACCUGCCGCCGGUGGUAAAAAAGAUCGGAAGAGCACACGUCU, the “aptazyme ON/OFF ratio” value came to 1.35.

On to GGGUCGCAGUAUCAUAAUCGCGUGGAUAUGGCACGCAAGUUUCUACCGGGCACCGUAAAUGUCCGACUGGAGCCGUUCGGGCGGCUAUAAACAGACCUCAGGCCCGAAGCGUGGCGGCACCUGCCGCCGGUGGUAAAAAAGAUCGGAAGAGCACACGUCU, for which the “aptazyme ON/OFF ratio” value was 1.16.

In the case of GGGUCGCAGUAGCAUAAUCGCGUGGAUAUGGCACGCAAGUUUCUACCGGGCACCGUAAAUGUCCGACUGGAGCCGUUCGGGCGGCUAUAAACAGACCUCAGGCCCGAAGCGUGGCGGCACCUGCCGCCGGUGGUAAAAAAGAUCGGAAGAGCACACGUCU, the “aptazyme ON/OFF ratio” value worked out at 1.09.

GGGUCGCAGUAGGAUAAUCGCGUGGAUAUGGCACGCAAGUUUCUACCGGGCACCGUAAAUGUCCGACUGGAGCCGUUCGGGCGGCUAUAAACAGACCUCAGGCCCGAAGCGUGGCGGCACCUGCCGCCGGUGGUAAAAAAGAUCGGAAGAGCACACGUCU: the “aptazyme ON/OFF ratio” value is 1.16.

For GGGUCGCAGUAGAAUAAUCGCGUGGAUAUGGCACGCAAGUUUCUACCGGGCACCGUAAAUGUCCGACUGGAGCCGUUCGGGCGGCUAUAAACAGACCUCAGGCCCGAAGCGUGGCGGCACCUGCCGCCGGUGGUAAAAAAGAUCGGAAGAGCACACGUCU, the “aptazyme ON/OFF ratio” value was found to be 1.09.

Consider GGGUCGCAGUAGUAUAAUCGCGUGGAUAUGGCACGCAAGUUUCUACCGGGCACCGUAAAUGUCCGACUGGAGCCGUUCGGGCGGCUAUAAACAGACCUCAGGCCCGAAGCGUGGCGGCACCUGCCGCCGGUGGUAAAAAAGAUCGGAAGAGCACACGUCU, for which the “aptazyme ON/OFF ratio” value worked out at 1.12.

Regarding GGGUCGCAGUGAGAUAAUCGCGUGGAUAUGGCACGCAAGUUUCUACCGGGCACCGUAAAUGUCCGACUGGAGCCGUUCGGGCGGCUAUAAACAGACCUCAGGCCCGAAGCGUGGCGGCACCUGCCGCCGGUGGUAAAAAAGAUCGGAAGAGCACACGUCU, the “aptazyme ON/OFF ratio” value came out at 1.14.

For the variant GGGUCGCAGUGAUAUAAUCGCGUGGAUAUGGCACGCAAGUUUCUACCGGGCACCGUAAAUGUCCGACUGGAGCCGUUCGGGCGGCUAUAAACAGACCUCAGGCCCGAAGCGUGGCGGCACCUGCCGCCGGUGGUAAAAAAGAUCGGAAGAGCACACGUCU, the “aptazyme ON/OFF ratio” value was 1.24.

As to GGGUCGCAGUGAAAUAAUCGCGUGGAUAUGGCACGCAAGUUUCUACCGGGCACCGUAAAUGUCCGACUGGAGCCGUUCGGGCGGCUAUAAACAGACCUCAGGCCCGAAGCGUGGCGGCACCUGCCGCCGGUGGUAAAAAAGAUCGGAAGAGCACACGUCU, the “aptazyme ON/OFF ratio” value was 1.11.

GGGUCGCAGUCGAAUAAUCGCGUGGAUAUGGCACGCAAGUUUCUACCGGGCACCGUAAAUGUCCGACUGGAGCCGUUCGGGCGGCUAUAAACAGACCUCAGGCCCGAAGCGUGGCGGCACCUGCCGCCGGUGGUAAAAAAGAUCGGAAGAGCACACGUCU: the “aptazyme ON/OFF ratio” value is 1.3.

As to GGGUCGCAGUCGGAUAAUCGCGUGGAUAUGGCACGCAAGUUUCUACCGGGCACCGUAAAUGUCCGACUGGAGCCGUUCGGGCGGCUAUAAACAGACCUCAGGCCCGAAGCGUGGCGGCACCUGCCGCCGGUGGUAAAAAAGAUCGGAAGAGCACACGUCU, the “aptazyme ON/OFF ratio” value was found to be 1.26.

GGGUCGCAGUCGUAUAAUCGCGUGGAUAUGGCACGCAAGUUUCUACCGGGCACCGUAAAUGUCCGACUGGAGCCGUUCGGGCGGCUAUAAACAGACCUCAGGCCCGAAGCGUGGCGGCACCUGCCGCCGGUGGUAAAAAAGAUCGGAAGAGCACACGUCU: the “aptazyme ON/OFF ratio” value is 1.3.

GGGUCGCAGUGGUAUAAUCGCGUGGAUAUGGCACGCAAGUUUCUACCGGGCACCGUAAAUGUCCGACUGGAGCCGUUCGGGCGGCUAUAAACAGACCUCAGGCCCGAAGCGUGGCGGCACCUGCCGCCGGUGGUAAAAAAGAUCGGAAGAGCACACGUCU: the “aptazyme ON/OFF ratio” value was 1.13.

As to GGGUCGCAGUGGGAUAAUCGCGUGGAUAUGGCACGCAAGUUUCUACCGGGCACCGUAAAUGUCCGACUGGAGCCGUUCGGGCGGCUAUAAACAGACCUCAGGCCCGAAGCGUGGCGGCACCUGCCGCCGGUGGUAAAAAAGAUCGGAAGAGCACACGUCU, the “aptazyme ON/OFF ratio” value was 1.13.

Regarding GGGUCGCAGUGGAAUAAUCGCGUGGAUAUGGCACGCAAGUUUCUACCGGGCACCGUAAAUGUCCGACUGGAGCCGUUCGGGCGGCUAUAAACAGACCUCAGGCCCGAAGCGUGGCGGCACCUGCCGCCGGUGGUAAAAAAGAUCGGAAGAGCACACGUCU, the “aptazyme ON/OFF ratio” value turned out to be 1.1.

On to GGGUCGCAGUCCCAUAAUCGCGUGGAUAUGGCACGCAAGUUUCUACCGGGCACCGUAAAUGUCCGACUGGAGCCGUUCGGGCGGCUAUAAACAGACCUCAGGCCCGAAGCGUGGCGGCACCUGCCGCCGGUGGUAAAAAAGAUCGGAAGAGCACACGUCU, for which the “aptazyme ON/OFF ratio” value was 1.1.

Regarding GGGUCGCAGUGCCAUAAUCGCGUGGAUAUGGCACGCAAGUUUCUACCGGGCACCGUAAAUGUCCGACUGGAGCCGUUCGGGCGGCUAUAAACAGACCUCAGGCCCGAAGCGUGGCGGCACCUGCCGCCGGUGGUAAAAAAGAUCGGAAGAGCACACGUCU, the “aptazyme ON/OFF ratio” value turned out to be 1.18.

As for GGGUCGCAGUCAAAUAAUCGCGUGGAUAUGGCACGCAAGUUUCUACCGGGCACCGUAAAUGUCCGACUGGAGCCGUUCGGGCGGCUAUAAACAGACCUCAGGCCCGAAGCGUGGCGGCACCUGCCGCCGGUGGUAAAAAAGAUCGGAAGAGCACACGUCU, the “aptazyme ON/OFF ratio” value is 1.29.

In the case of GGGUCGCAGUCAUAUAAUCGCGUGGAUAUGGCACGCAAGUUUCUACCGGGCACCGUAAAUGUCCGACUGGAGCCGUUCGGGCGGCUAUAAACAGACCUCAGGCCCGAAGCGUGGCGGCACCUGCCGCCGGUGGUAAAAAAGAUCGGAAGAGCACACGUCU, the “aptazyme ON/OFF ratio” value worked out at 1.25.

With GGGUCGCAGUCAGAUAAUCGCGUGGAUAUGGCACGCAAGUUUCUACCGGGCACCGUAAAUGUCCGACUGGAGCCGUUCGGGCGGCUAUAAACAGACCUCAGGCCCGAAGCGUGGCGGCACCUGCCGCCGGUGGUAAAAAAGAUCGGAAGAGCACACGUCU, the “aptazyme ON/OFF ratio” value was found to be 1.18.

As to GGGUCGCAGUGACAUAAUCGCGUGGAUAUGGCACGCAAGUUUCUACCGGGCACCGUAAAUGUCCGACUGGAGCCGUUCGGGCGGCUAUAAACAGACCUCAGGCCCGAAGCGUGGCGGCACCUGCCGCCGGUGGUAAAAAAGAUCGGAAGAGCACACGUCU, the “aptazyme ON/OFF ratio” value is 1.08.

On to GGGUCGCAGUGGCAUAAUCGCGUGGAUAUGGCACGCAAGUUUCUACCGGGCACCGUAAAUGUCCGACUGGAGCCGUUCGGGCGGCUAUAAACAGACCUCAGGCCCGAAGCGUGGCGGCACCUGCCGCCGGUGGUAAAAAAGAUCGGAAGAGCACACGUCU, for which the “aptazyme ON/OFF ratio” value was found to be 1.19.
